{
  "source": "patent US20060099648A1",
  "about": "“Compositions and methods for epitope mapping” (priority 2000, published 2006)",
  "data": [
    {"target": "Human IgG (Calbiochem; San Diego Calif.) (human)", "test": "IgG displaced from peptide pin; competitor MSP1-19", "units": {"ΔF (%)": "%"}, "values": [
      {"binder": "NSGCF", "note": "[Peptide# 15]", "ΔF (%)": "< 5"},
      {"binder": "NPNPT", "note": "[Peptide# 44]", "ΔF (%)": "< 5"},
      {"binder": "CVENP", "note": "[Peptide# 41]", "ΔF (%)": "< 5"},
      {"binder": "GDKCV", "note": "[Peptide# 38]", "ΔF (%)": "< 5"},
      {"binder": "KPDSY", "note": "[Peptide# 80]", "ΔF (%)": 11},
      {"binder": "QEGDK", "note": "[Peptide# 36]", "ΔF (%)": "< 5"},
      {"binder": "CDADA", "note": "[Peptide# 56]", "ΔF (%)": "< 5"},
      {"binder": "DSYPL", "note": "[Peptide# 82]", "ΔF (%)": 9},
      {"binder": "TCECT", "note": "[Peptide# 75]", "ΔF (%)": 12},
      {"binder": "PNPTC", "note": "[Peptide# 45]", "ΔF (%)": "< 5"},
      {"binder": "CTKPD", "note": "[Peptide# 78]", "ΔF (%)": 10},
      {"binder": "KCLLN", "note": "[Peptide# 29]", "ΔF (%)": "< 5"},
      {"binder": "PDSYP", "note": "[Peptide# 81]", "ΔF (%)": 9},
      {"binder": "TKPDS", "note": "[Peptide# 79]", "ΔF (%)": 11},
      {"binder": "CFRHL", "note": "[Peptide# 18]", "ΔF (%)": "< 5"},
      {"binder": "ENNGG", "note": "[Peptide# 51]", "ΔF (%)": "< 5"},
      {"binder": "EDSGS", "note": "[Peptide# 65]", "ΔF (%)": 7},
      {"binder": "YKQEG", "note": "[Peptide# 34]", "ΔF (%)": "< 5"},
      {"binder": "EGDKC", "note": "[Peptide# 37]", "ΔF (%)": "< 5"},
      {"binder": "GCFRH", "note": "[Peptide# 17]", "ΔF (%)": "< 5"},
      {"binder": "NISQH", "note": "[Peptide# 1]", "ΔF (%)": "< 5"},
      {"binder": "QCPQN", "note": "[Peptide# 11]", "ΔF (%)": "< 5"},
      {"binder": "QNSGC", "note": "[Peptide# 14]", "ΔF (%)": "< 5"},
      {"binder": "GKKIT", "note": "[Peptide# 71]", "ΔF (%)": 6},
      {"binder": "NGGCD", "note": "[Peptide# 53]", "ΔF (%)": 10},
      {"binder": "EEDSG", "note": "[Peptide# 64]", "ΔF (%)": 7},
      {"binder": "DEREE", "note": "[Peptide# 23]", "ΔF (%)": "< 5"},
      {"binder": "VENPN", "note": "[Peptide# 42]", "ΔF (%)": "< 5"},
      {"binder": "KCTEE", "note": "[Peptide# 61]", "ΔF (%)": 6},
      {"binder": "ECKCL", "note": "[Peptide# 27]", "ΔF (%)": "< 5"},
      {"binder": "QCVKK", "note": "[Peptide# 6]", "ΔF (%)": "< 5"},
      {"binder": "LLNYK", "note": "[Peptide# 31]", "ΔF (%)": "< 5"},
      {"binder": "HLDER", "note": "[Peptide# 21]", "ΔF (%)": "< 5"},
      {"binder": "KITCE", "note": "[Peptide# 73]", "ΔF (%)": 7},
      {"binder": "ENPNP", "note": "[Peptide# 43]", "ΔF (%)": "< 5"},
      {"binder": "CTEED", "note": "[Peptide# 62]", "ΔF (%)": "< 5"},
      {"binder": "RHLDE", "note": "[Peptide# 20]", "ΔF (%)": "< 5"},
      {"binder": "CECTK", "note": "[Peptide# 76]", "ΔF (%)": "< 5"},
      {"binder": "SGCFR", "note": "[Peptide# 16]", "ΔF (%)": "< 5"},
      {"binder": "PTCNE", "note": "[Peptide# 47]", "ΔF (%)": "< 5"},
      {"binder": "NYKQE", "note": "[Peptide# 33]", "ΔF (%)": "< 5"},
      {"binder": "LDERE", "note": "[Peptide# 22]", "ΔF (%)": "< 5"},
      {"binder": "EREEC", "note": "[Peptide# 24]", "ΔF (%)": "< 5"},
      {"binder": "CKCLL", "note": "[Peptide# 28]", "ΔF (%)": "< 5"},
      {"binder": "KKITC", "note": "[Peptide# 72]", "ΔF (%)": 9},
      {"binder": "ADAKC", "note": "[Peptide# 58]", "ΔF (%)": "< 5"},
      {"binder": "DKCVE", "note": "[Peptide# 39]", "ΔF (%)": "< 5"},
      {"binder": "CVKKQ", "note": "[Peptide# 7]", "ΔF (%)": "< 5"},
      {"binder": "GSNGK", "note": "[Peptide# 68]", "ΔF (%)": "< 5"},
      {"binder": "KCVEN", "note": "[Peptide# 40]", "ΔF (%)": "< 5"},
      {"binder": "FRHLD", "note": "[Peptide# 19]", "ΔF (%)": "< 5"},
      {"binder": "AKCTE", "note": "[Peptide# 60]", "ΔF (%)": 5},
      {"binder": "TEEDS", "note": "[Peptide# 63]", "ΔF (%)": "< 5"},
      {"binder": "CPQNS", "note": "[Peptide# 12]", "ΔF (%)": "< 5"},
      {"binder": "DADAK", "note": "[Peptide# 57]", "ΔF (%)": "< 5"},
      {"binder": "SQHQC", "note": "[Peptide# 3]", "ΔF (%)": "< 5"},
      {"binder": "SNGKK", "note": "[Peptide# 69]", "ΔF (%)": "< 5"},
      {"binder": "GGCDA", "note": "[Peptide# 54]", "ΔF (%)": "< 5"},
      {"binder": "ISQHQ", "note": "[Peptide# 2]", "ΔF (%)": "< 5"},
      {"binder": "ECTKP", "note": "[Peptide# 77]", "ΔF (%)": 13},
      {"binder": "EECKC", "note": "[Peptide# 26]", "ΔF (%)": "< 5"},
      {"binder": "SYPLF", "note": "[Peptide# 83]", "ΔF (%)": 13},
      {"binder": "YPLFD", "note": "[Peptide# 84]", "ΔF (%)": 12},
      {"binder": "PQNSG", "note": "[Peptide# 13]", "ΔF (%)": "< 5"},
      {"binder": "LNYKQ", "note": "[Peptide# 32]", "ΔF (%)": "< 5"},
      {"binder": "DAKCT", "note": "[Peptide# 59]", "ΔF (%)": "< 5"},
      {"binder": "SGSNG", "note": "[Peptide# 67]", "ΔF (%)": "< 5"},
      {"binder": "HQCVK", "note": "[Peptide# 5]", "ΔF (%)": "< 5"},
      {"binder": "NENNG", "note": "[Peptide# 50]", "ΔF (%)": 5},
      {"binder": "NNGGC", "note": "[Peptide# 52]", "ΔF (%)": 6},
      {"binder": "DSGSN", "note": "[Peptide# 66]", "ΔF (%)": 9},
      {"binder": "CNENN", "note": "[Peptide# 49]", "ΔF (%)": 16},
      {"binder": "NGKKI", "note": "[Peptide# 70]", "ΔF (%)": 12},
      {"binder": "VKKQC", "note": "[Peptide# 8]", "ΔF (%)": "< 5"},
      {"binder": "QHQCV", "note": "[Peptide# 4]", "ΔF (%)": "< 5"},
      {"binder": "NPTCN", "note": "[Peptide# 46]", "ΔF (%)": "< 5"},
      {"binder": "KQEGD", "note": "[Peptide# 35]", "ΔF (%)": "< 5"},
      {"binder": "REECK", "note": "[Peptide# 25]", "ΔF (%)": "< 5"},
      {"binder": "ITCEC", "note": "[Peptide# 74]", "ΔF (%)": 5},
      {"binder": "TCNEN", "note": "[Peptide# 48]", "ΔF (%)": "< 5"},
      {"binder": "CLLNY", "note": "[Peptide# 30]", "ΔF (%)": "< 5"},
      {"binder": "KQCPQ", "note": "[Peptide# 10]", "ΔF (%)": "< 5"},
      {"binder": "GCDAD", "note": "[Peptide# 55]", "ΔF (%)": 7}
    ]}
  ]
}
